For data set [1] the following is noted: intratumoral, very low doses (0.005 to 0.055 mg); cited from earlier work.
Data set [2] in a line: Change in body weight in the CT26 study (systemic toxicity). The class given is in vivo, BALB/c mice. The note with it: 100 nmol/dose/animal intratumoral, day 1, 3, 5; body weight minus tumor weight; FIG. 11. Here is the method: (§1) Six to eight-week-old female BALB/c mice (Charles River) were injected subcutaneously with 2×10^5 CT26 cells on the right flank. When the tumors reached an average volume of ˜150 mm^3, mice were randomized into seven groups of eight mice per group, approximately 10 days (13 days) post tumor cell grafting, referred as day 0. After randomization, tumor size and body weight were assessed three times a week for the duration of the study. Animals were sacrificed according to the following humane endpoints: tumor volume ≥2000 mm^3, presence of necrotic or ulcerated tumor, impaired mobility including transient prostration or hunched posture, or interference with a vital physiological function. Treatments were initiated on day 1. All animals from group 1 to group 6 received three intratumoral injections of either formulated or non-formulated small molecule TLR7/8 agonists, or vehicle control, once every two days, on day 1, day 3 and day 5, in 50 μl delivery dose. Mice of group 7 were untreated. Animals from group 1 to group 4 were respectively treated with 100 nmol/dose/animal of kHL-12 or pHL-12 both prepared in 28 mM L-Histidine/Mannitol dilution buffer, or 3M-052 (MedChemExpress, teltralimod Cat. No.: HY-109104) prepared in ethanol/sesame oil (1:10), or R848 (Invivogen, R848 VacciGrade™, Cat. Code vac-r848) reconstituted in 28 mM L-Histidine/Mannitol dilution buffer. Mice from group 5 and group 6 received control vehicles in the delivery dose of 50 μl, 28 mM L-Histidine/Mannitol dilution buffer and ethanol/sesame oil (1:10), respectively.
(§2) Body weight was normalized by subtracting the weight of the tumor to the overall body weight.

For data set [3] the following is noted: poloxamer 407 thermogel formulation, intratumoral, animal models; cited from earlier work.
The subject of another data set is CT26 cells. Briefly: Antitumor activity after intratumoral injection, CT26 right flank model. It is filed as in vivo, BALB/c mice. Particulars: 100 nmol/dose/animal intratumoral, day 1, 3, 5; FIG. 10. As for the experimental part:
as §1, §2

A short description of data set [4]: Appearance (visual) and solubility (RP-HPLC of supernatant) in different buffer conditions. Particulars: for Solubility/appearance across buffer conditions: change in pH and/or presence of sodium chloride; for HPLC solubility: peak area vs same compound in 10% acetic acid. It is filed as physicochemical. As for the experimental part: The solubility of peptide conjugates KK-12, HH-12, AH-12 and HL-12 was determined by visual inspection of the solution and by RP-HPLC. Twenty (20) minutes after dispersion of the peptide conjugates in different buffer conditions, the solutions were centrifuged for 10 minutes and the supernatant analyzed by RP-HPLC. The peak area of each peptide conjugate was compared with the area of the same compound made fully soluble in 10% acetic acid. Appearance of the solution was evaluated visually according to the following criteria: clear, very slightly opalescent, slightly opalescent, opalescent or precipitated.

The conditions of data set [5]: in more than half of the participants; cited from earlier work.

Where a SMILES comes first, the peptide text is derived from it. Where no end group is shown, it is not given here. Side-chain parts run from the residue outwards. The star is where a group is joined. X1 = CCCCc1nc2c(N)nc3ccccc3c2n1Cc1ccc(CNC(=O)COCC(=O)*)cc1; Palmitoyl = CCCCCCCCCCCCCCCC(=O)*; PEG3 = NCCOCCOCCOCCC(=O)O; ADJ12 = not defined here A value given as a limit tells only on which side of the number the result lay.

Take `CCCCCCCCCCCCCCCCCC(=O)NCCCCOn1c(CCCC)nc2c(N)nc3ccccc3c21` [3M-052]: the Clinical adverse events entry in data set [1] was “induction of adverse events related to cytokine release syndrome”. Further, the “Impact on body weight over time” value in data set [2] is “pronounced loss in body weight”. Further, in data set [3], the “Systemic release of the drug” value was “systemic release of the drug after administration of this formulation was still observed”. In the data set with CT26 cells, the “Antitumoral activity (median tumor volume)” value (from here on “Antitumoral activity”) is on record as “comparable”.

On to `CCCCc1nc2c(N)nc3ccccc3c2n1Cc1ccc(CNC(=O)COCC(=O)NCCOCCOCCOCCC(=O)NCCCC[C@H](NC(=O)[C@H](CC(C)C)NC(=O)[C@H](CCCNC(=N)N)NC(=O)[C@H](CCCNC(=N)N)NC(=O)[C@H](CC(C)C)NC(=O)[C@H](CC(C)C)NC(=O)[C@H](C)NC(=O)[C@H](C)NC(=O)[C@H](Cc2c[nH]cn2)NC(=O)[C@H](CC(C)C)NC(=O)[C@H](C)NC(=O)[C@H](CC(C)C)NC(=O)[C@H](Cc2c[nH]cn2)NC(=O)[C@H](C)NC(=O)[C@H](C)NC(=O)[C@H](CC(C)C)NC(=O)[C@H](CC(C)C)NC(=O)[C@H](CCCNC(=N)N)NC(=O)[C@H](CCCNC(=N)N)NC(C)=O)C(N)=O)cc1` [AH-12, Ac-RRLLAAHLALHAALLRRLK(ADJ12)-NH2] (Ac-RRLLAAHLALHAALLRRLK([PEG3-X1])-NH2), for which the “Solubility/appearance across buffer conditions” value in data set [4] is on record as “change in appearance and/or HPLC solubility”. The HPLC solubility in data set [4] (pH 5.2, NaCl 154 mM) is above 98% HPLC; in data set [4] (pH 5.2, no NaCl) it was above 98% HPLC; in data set [4] (pH 7.5, NaCl 154 mM), 90% HPLC; in data set [4] (pH 7.5, no NaCl), above 98% HPLC.

Take `CCCCOc1nc(N)c2[nH]c(=O)n(CCCN(CCCN3CCOCC3)Cc3cccc(CC(=O)OC)c3)c2n1` [AZD8848]: the “Clinical safety issues from systemic interferon signaling” value in data set [5] is recorded as “significant influenza-like symptoms”.

As to `CCCCc1nc2c(N)nc3ccccc3c2n1Cc1ccc(CNC(=O)COCC(=O)NCCOCCOCCOCCC(=O)NCCCC[C@H](NC(=O)[C@H](CC(C)C)NC(=O)[C@H](CCCNC(=N)N)NC(=O)[C@H](CCCNC(=N)N)NC(=O)[C@H](CC(C)C)NC(=O)[C@H](CC(C)C)NC(=O)[C@H](Cc2c[nH]cn2)NC(=O)[C@H](C)NC(=O)[C@H](Cc2c[nH]cn2)NC(=O)[C@H](CC(C)C)NC(=O)[C@H](C)NC(=O)[C@H](CC(C)C)NC(=O)[C@H](Cc2c[nH]cn2)NC(=O)[C@H](C)NC(=O)[C@H](Cc2c[nH]cn2)NC(=O)[C@H](CC(C)C)NC(=O)[C@H](CC(C)C)NC(=O)[C@H](CCCNC(=N)N)NC(=O)[C@H](CCCNC(=N)N)NC(C)=O)C(N)=O)cc1` [HH-12, Ac-RRLLHAHLALHAHLLRRLK(ADJ12)-NH2] (Ac-RRLLHAHLALHAHLLRRLK([PEG3-X1])-NH2), the “Solubility/appearance across buffer conditions” value in data set [4] was “change in appearance and/or HPLC solubility”. For the same compound, the HPLC solubility was above 98% HPLC in data set [4] (pH 5.2, NaCl 154 mM); above 98% HPLC in data set [4] (pH 5.2, no NaCl); 55% HPLC in data set [4] (pH 7.5, NaCl 154 mM); above 98% HPLC in data set [4] (pH 7.5, no NaCl).

In the case of `CCCCc1nc2c(N)nc3ccccc3c2n1Cc1ccc(CNC(=O)COCC(=O)NCCOCCOCCOCCC(=O)NCCCC[C@H](NC(=O)[C@H](CC(C)C)NC(=O)[C@H](CCCNC(=N)N)NC(=O)[C@H](CCCNC(=N)N)NC(=O)[C@H](CC(C)C)NC(=O)[C@H](CC(C)C)NC(=O)[C@H](Cc2c[nH]cn2)NC(=O)[C@H](C)NC(=O)[C@H](CC(C)C)NC(=O)[C@H](CC(C)C)NC(=O)[C@H](C)NC(=O)[C@H](CC(C)C)NC(=O)[C@H](CC(C)C)NC(=O)[C@H](C)NC(=O)[C@H](Cc2c[nH]cn2)NC(=O)[C@H](CC(C)C)NC(=O)[C@H](CC(C)C)NC(=O)[C@H](CCCNC(=N)N)NC(=O)[C@H](CCCNC(=N)N)NC(C)=O)C(N)=O)cc1` [HL-12, Ac-RRLLHALLALLAHLLRRLK(ADJ12)-NH2] (Ac-RRLLHALLALLAHLLRRLK([PEG3-X1])-NH2), the “Solubility/appearance across buffer conditions” value in data set [4] is reported as “change in appearance and/or HPLC solubility”. The HPLC solubility in data set [4] (pH 5.2, NaCl 154 mM) is above 98% HPLC; in data set [4] (pH 5.2, no NaCl) it was above 98% HPLC; in data set [4] (pH 7.5, NaCl 154 mM) it was 0% HPLC; in data set [4] (pH 7.5, no NaCl), above 98% HPLC.

For the compound `CCCCc1nc2c(N)nc3ccccc3c2n1Cc1ccc(CNC(=O)COCC(=O)NCCOCCOCCOCCC(=O)NCCCC[C@H](NC(=O)[C@H](CC(C)C)NC(=O)[C@H](CCCNC(=N)N)NC(=O)[C@H](CCCNC(=N)N)NC(=O)[C@H](CC(C)C)NC(=O)[C@H](CC(C)C)NC(=O)[C@H](CCCCN)NC(=O)[C@H](C)NC(=O)[C@H](CCCCN)NC(=O)[C@H](CC(C)C)NC(=O)[C@H](C)NC(=O)[C@H](CC(C)C)NC(=O)[C@H](CCCCN)NC(=O)[C@H](C)NC(=O)[C@H](CCCCN)NC(=O)[C@H](CC(C)C)NC(=O)[C@H](CC(C)C)NC(=O)[C@H](CCCNC(=N)N)NC(=O)[C@H](CCCNC(=N)N)NC(C)=O)C(N)=O)cc1` [KK-12, Ac-RRLLKAKLALKAKLLRRLK(ADJ12)-NH2] (Ac-RRLLKAKLALKAKLLRRLK([PEG3-X1])-NH2), in data set [4], the “Solubility/appearance across buffer conditions” value is on record as “remains soluble”. In addition, the HPLC solubility was above 98% HPLC in data set [4] (pH 5.2, NaCl 154 mM); above 98% HPLC in data set [4] (pH 5.2, no NaCl); above 98% HPLC in data set [4] (pH 7.5, NaCl 154 mM); above 98% HPLC in data set [4] (pH 7.5, no NaCl).

For the compound `CCOCc1nc2c(N)nc3ccccc3c2n1CC(C)(C)O` [R848, 1-(4-amino-2-(ethoxymethyl)-1H-imidazo[4,5-c]quinolin-1-yl)-2-methylpropan-2-ol], the “Impact on body weight over time” value in data set [2] is listed as “pronounced loss in body weight”. Besides, in the data set on CT26 cells, the “Antitumoral activity” value is given as “comparable”.

On to `CCCCc1nc2c(N)nc3ccccc3c2n1Cc1ccc(CNC(=O)COCC(=O)NCCOCCOCCOCCC(=O)NCCCC[C@H](NC(=O)[C@H](CC(C)C)NC(=O)[C@H](CCCNC(=N)N)NC(=O)[C@H](CCCNC(=N)N)NC(=O)[C@H](CC(C)C)NC(=O)[C@H](CC(C)C)NC(=O)[C@H](Cc2c[nH]cn2)NC(=O)[C@H](C)NC(=O)[C@H](CC(C)C)NC(=O)[C@H](CC(C)C)NC(=O)[C@H](C)NC(=O)[C@H](CC(C)C)NC(=O)[C@H](CC(C)C)NC(=O)[C@H](C)NC(=O)[C@H](Cc2c[nH]cn2)NC(=O)[C@H](CC(C)C)NC(=O)[C@H](CC(C)C)NC(=O)[C@H](CCCNC(=N)N)NC(=O)[C@H](CCCNC(=N)N)NC(=O)[C@@H](N)CCCCNC(C)=O)C(N)=O)cc1` [kHL-12, K(Ac)—RRLLHALLALLAHLLRRLK(ADJ12)-NH2] (H-K(Ac)RRLLHALLALLAHLLRRLK([PEG3-X1])-NH2; N-terminus and C-terminus assumed), for which the “Impact on body weight over time” value in data set [2] is “limited impact on the body weight”.

Consider “K(Pam)-RRLLHALLALLAHLLRRLK(ADJ12)-NH2 (K(Palmitoyl)RRLLHALLALLAHLLRRLK(ADJ12)-NH2; reading uncertain; also: printed as K(Pam)-RRLLHALLALLAHLLRRLK(ADJ12)-NH2) [pHL-12]”, for which the “Antitumoral activity” value in the data set with CT26 cells is “lower level of antitumor activity”.

The record behind these values is patent US20200316211A1, “LOCALLY ACTING TOLL-LIKE RECEPTOR 7 (TLR7) AND/OR TLR8 AGONIST IMMUNOTHERAPY COMPOUNDS AND THEIR USES” (Altimmune UK Limited, priority 2019, published 2020).
